Test results taken from paper PMC5131357, “Biochemical and Structural Analysis of a Novel Esterase from Caulobacter crescentus related to Penicillin-Binding Protein (PBP)” (Scientific Reports, 2016).

Legend:
Test in all cases: purified protein
[1] = system: O=C(Cc1cccs1)N[C@@H]1C(=O)N2C(C(=O)O)=C(/C=C/c3ccc([N+](=O)[O-])cc3[N+](=O)[O-])CS[C@H]12; conditions: 20 mM Tris-HCl pH 8.0, RT, 15 μM enzyme
[2] = system: CCCCCCCC(=O)Oc1ccc([N+](=O)[O-])cc1; conditions: 20 mM Tris-HCl pH 8.0, RT, 40 nM enzyme
[3] = system: CC(=O)Oc1ccc([N+](=O)[O-])cc1; conditions: 20 mM Tris-HCl pH 8.0, RT, 40 nM enzyme

## CcEstA (Caulobacter vibrioides NA1000)
[1]
  Km: 1348 µM
  kcat: 0.00807 s⁻¹
[2]
  Km: 43.4 ± 3.15 µM
  kcat: 4.03 ± 0.29 s⁻¹
[3]
  Km: 51.9 ± 2.44 µM
  kcat: 15.2 ± 2.19 s⁻¹
